The RNAGym collection of RNA variant scans (doi:10.1021/acssynbio.7b00057)

B1: Pistol ribozyme (parent)
chain: GGGUCGUUGUUCCAUAAUCGCGUGGAUAUGGCACGCAAGUUUCUACCGGGCACCGUAAAUGUCCGACUGGAGCCGUUCGGGCGGCUAUAAACAGACCUCAGGCCCGAAGCGUGGCGGCACCUGCCGCCGGUGGUAAAAAAGAUCGGAAGAGCACACGUCU

Variants of: B1
Assay: aptazyme ON/OFF ratio, guanine; higher = stronger switching; co-transcriptional cleavage with and without guanine

Row | Variant | aptazyme ON/OFF ratio
1 | U7C G9U U10C U11A C13A | 1.1
2 | U7A U8C G9U U10G U11C C12G C13G | 1.17
3 | U7C U8G U11A C12U C13U | 1.12
4 | U7G U8G G9A U10A C12A C13A | 1.2
5 | U7C U8A G9A U10C U11G C12U C13U | 1.26
6 | U7C U8G G9U U10C U11C C12U C13G | 1.05
7 | U8G C13G | 1.2
8 | U7C U8C G9C U10C U11A C12A C13U | 1.1
9 | U7A U8G U11G C12A C13U | 1.21
10 | U7A U8G G9C U10C U11C C13U | 1.04
11 | U7C C13U | 1.18
12 | U7C U8C G9U U10C C12G C13U | 1.13
13 | U8A G9C U10G U11C C12G C13G | 1.17
14 | U8A G9U U10C U11G C12U | 1.18
15 | U7G U8C U10A U11G C12A | 1.1
16 | U7G U8G C13G | 1.42
17 | U7G U8C U10C U11G C12U C13G | 1.16
18 | U7C G9C U10C U11A C13A | 1.09
19 | U7A U8C G9C U11A C12G C13A | 1.09
20 | U7A U8G U10G U11G C12U C13G | 1.33
21 | U7A G9C U10C U11G C12U C13U | 1.06

Row | Variant | aptazyme ON/OFF ratio
22 | U7C U8G G9C U10A U11G C12U C13U | 1.18
23 | G9U U10C U11C C13U | 1.03
24 | U7C G9A U11C C12A C13A | 1.16
25 | U7C G9A U11C C12A C13U | 1.15
26 | U7C G9U U10A U11G C12A C13A | 1.05
27 | U8A G9C U10G U11A C12U | 1.06
28 | U7C U8G G9A U11C C13U | 1.05
29 | U7A U8A G9A U10G U11A C12A C13A | 1.02
30 | U7G U8C G9C U10A U11G C12G C13A | 1.08
31 | U7G G9C U10A U11G C12G C13U | 1.12
32 | U7G U8A G9C U10A U11A C12A C13U | 1.02
33 | U7C U8A G9C U10A U11A C12A C13G | 1.12
34 | U8G G9U U10A U11A C12G | 1.14
35 | U7A U8A U10C U11C C12U C13G | 1.15
36 | U7A G9U U11C C12A C13G | 1.16
37 | U7G U8A U10G U11C C12G | 1.02
38 | U7C U8G G9C U10A C13G | 1.08
39 | U7A U8A U10G C13A | 1.31
40 | U7C G9U U10G U11G C12G C13A | 1.13
41 | U7C U8C G9U U10C U11C C12A C13G | 1.18
42 | U7G U10C U11A C12G C13A | 1.07

Row | Variant | aptazyme ON/OFF ratio
43 | U7A U8G G9A U11A C12G C13G | 1.33
44 | U8G G9C U10G C13U | 1.24
45 | U7G U8A G9U U10G C13G | 1.19
46 | U7G U8C G9U U10A U11G C12U C13A | 1.2
47 | U7C U8C G9U U11C C13G | 1.02
48 | U7G U10G U11G C12A C13A | 1.08
49 | U8G G9C U10G U11G C12G C13G | 1.1
50 | U7C U8C G9A U10G U11A C12G C13G | 1.2
51 | U7G U8A G9A U10C U11G C12G C13G | 1.19
52 | U7C G9U U10C U11G C12G C13A | 1.1
53 | U7G U8G G9A U11A C12A | 1.38
54 | U7A G9A U10G U11C | 1.06
55 | U7A U8C G9C U11C C12G C13U | 1.09
56 | U7G G9A C12G C13G | 1.1
57 | U7G U8C C12G | 1.12
58 | U7C U8C G9C U11C C12A C13U | 1.18
59 | U7G U8C G9C U10C U11A C13G | 1.11
60 | U8C G9A C12G C13U | 1.26
61 | U7G U8A G9U U11A C12A | 1.14
62 | U7G U8C U10G U11G C13A | 1.22
63 | U7C U8A G9C U10C U11C C12A | 1.06

Row | Variant | aptazyme ON/OFF ratio
64 | U7G U8C U10A C12U | 1.31
65 | U7C U8C G9C U10A U11G C13A | 1.13
66 | G9C C12U | 1.07
67 | U7C U11C C12A | 1.1
68 | U7G U8C G9U U10C U11A C12U C13A | 1.72
69 | U7A G9U U10A U11C C12G C13U | 1.13
70 | U7C U8C G9A U10G U11G C13G | 1.23
71 | U7C G9U U10A U11A C12A C13A | 1.3
72 | U7C U8C G9A U10C U11A C13G | 1.04
73 | U8A G9U U10A C13A | 1.26
74 | U8G G9U U10C U11G C12G | 1.25
75 | U7A U8G G9C U10G U11A C12A C13A | 1.16
76 | U8C G9C U10G C12G C13A | 1.08
77 | U7C G9U C12A C13G | 1.08
78 | U7G U10A U11C C12G C13G | 1.03
79 | U7C U10A U11A C13A | 1.28
80 | U8A U10A U11C C13G | 1.02
81 | U8G U11G C13U | 1.03
82 | U8A G9A U10A U11G C12A C13A | 1.03
83 | U7A U8G G9U U10A U11C C12U C13A | 1.21
